In the supplement of paper PMC10065799, “High-throughput profiling of sequence recognition by tyrosine kinases and SH2 domains using bacterial peptide display” (eLife, 2023):

Key:
SHP2-C SH2 = experiment: SH2 binding enrichment of the phosphorylated peptide, bacterial display (enrichment ratio); higher = better substrate or ligand; peptides without Tyr show the background
Grb2 SH2 = Grb2 SH2 (UniProt P62993); experiment: as above
c-Src SH2 = experiment: as above
c-Src = experiment: phosphorylation enrichment, bacterial display (enrichment ratio); higher = better substrate or ligand; peptides without Tyr show the background
MERTK = MERTK (UniProt Q12866); experiment: as above
FGFR3 = FGFR3 (UniProt P22607); experiment: as above
EPHB2 = EPHB2 (UniProt P29323); experiment: as above
c-Abl (mouse) = experiment: as above
EPHB1 = EPHB1 (UniProt P54762); experiment: as above
Jak2 = Jak2 (UniProt O60674); experiment: as above
AncSZ = experiment: as above
Fer (mouse) = experiment: as above
Fyn = Fyn (UniProt P06241); experiment: as above
Hck = Hck (UniProt P08631); experiment: as above
FGFR1 = FGFR1 (UniProt P11362); experiment: as above
Fes = Fes (UniProt P07332); experiment: as above
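Throughout, for SH2 binding enrichment of the phosphorylated peptide, bacterial display: peptide library displayed on the E. coli surface as eCPX fusions, selected cells deep-sequenced, score is each peptide's frequency after selection divided by its frequency in the input.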
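Throughout, for phosphorylation enrichment, bacterial display: 11-residue human phosphosite peptides and single-mutation variants displayed on the E. coli surface, counted by deep sequencing, each peptide's frequency after selection divided by its frequency in the unselected input library; frequency after pTyr selection over input frequency; kinase dosed for 20-30% of maximal phosphorylation in three min.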

Chain of MERTK (Q12866 whole entry, looked up): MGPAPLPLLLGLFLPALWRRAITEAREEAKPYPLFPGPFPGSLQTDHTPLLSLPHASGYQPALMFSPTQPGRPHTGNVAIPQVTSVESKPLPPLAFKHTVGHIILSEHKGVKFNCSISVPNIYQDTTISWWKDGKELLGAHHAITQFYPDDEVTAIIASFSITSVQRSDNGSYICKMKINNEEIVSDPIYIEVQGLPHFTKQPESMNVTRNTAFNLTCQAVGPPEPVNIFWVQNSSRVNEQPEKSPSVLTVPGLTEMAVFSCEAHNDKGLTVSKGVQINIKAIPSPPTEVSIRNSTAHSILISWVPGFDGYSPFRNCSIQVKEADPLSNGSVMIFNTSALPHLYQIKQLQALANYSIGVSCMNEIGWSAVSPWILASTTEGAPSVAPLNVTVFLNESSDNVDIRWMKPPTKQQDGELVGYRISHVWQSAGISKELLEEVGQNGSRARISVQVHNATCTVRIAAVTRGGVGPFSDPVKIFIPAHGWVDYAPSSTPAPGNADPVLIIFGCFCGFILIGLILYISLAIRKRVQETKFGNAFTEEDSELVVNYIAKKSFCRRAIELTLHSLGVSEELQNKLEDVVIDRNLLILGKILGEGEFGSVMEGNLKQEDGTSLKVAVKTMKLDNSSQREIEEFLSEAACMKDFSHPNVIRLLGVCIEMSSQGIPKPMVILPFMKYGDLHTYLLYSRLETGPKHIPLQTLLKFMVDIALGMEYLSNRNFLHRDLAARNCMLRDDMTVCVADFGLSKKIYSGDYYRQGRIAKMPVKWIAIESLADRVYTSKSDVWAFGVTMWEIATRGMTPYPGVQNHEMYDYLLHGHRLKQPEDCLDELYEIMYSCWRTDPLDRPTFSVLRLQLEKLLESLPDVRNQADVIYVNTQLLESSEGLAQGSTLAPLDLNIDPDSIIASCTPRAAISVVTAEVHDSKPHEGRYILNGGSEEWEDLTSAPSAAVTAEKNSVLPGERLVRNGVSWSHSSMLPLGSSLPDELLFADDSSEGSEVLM
Chain of Fes (P07332 whole entry, looked up, the tested form may be a part): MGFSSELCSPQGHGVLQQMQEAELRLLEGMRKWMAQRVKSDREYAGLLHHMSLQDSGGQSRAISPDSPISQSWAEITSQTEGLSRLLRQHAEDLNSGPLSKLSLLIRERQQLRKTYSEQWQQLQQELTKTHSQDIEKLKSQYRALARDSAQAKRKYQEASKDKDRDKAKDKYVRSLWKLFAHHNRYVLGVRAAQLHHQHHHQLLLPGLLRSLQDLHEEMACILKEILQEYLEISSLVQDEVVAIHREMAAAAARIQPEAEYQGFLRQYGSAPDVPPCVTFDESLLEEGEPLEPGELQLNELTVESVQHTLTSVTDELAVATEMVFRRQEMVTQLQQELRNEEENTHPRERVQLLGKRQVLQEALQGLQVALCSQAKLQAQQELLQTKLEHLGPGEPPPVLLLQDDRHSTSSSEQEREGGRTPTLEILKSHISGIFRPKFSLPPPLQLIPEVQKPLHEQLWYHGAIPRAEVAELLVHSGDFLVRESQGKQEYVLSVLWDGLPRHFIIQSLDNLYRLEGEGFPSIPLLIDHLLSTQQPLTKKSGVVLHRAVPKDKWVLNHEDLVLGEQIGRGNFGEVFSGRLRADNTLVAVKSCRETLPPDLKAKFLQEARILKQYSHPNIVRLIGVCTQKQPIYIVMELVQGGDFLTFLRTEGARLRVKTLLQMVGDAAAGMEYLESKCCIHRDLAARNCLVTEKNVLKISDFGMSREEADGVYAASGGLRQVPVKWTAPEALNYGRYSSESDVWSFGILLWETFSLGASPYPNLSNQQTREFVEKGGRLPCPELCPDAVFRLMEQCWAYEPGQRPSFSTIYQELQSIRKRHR
Chain of EPHB2 (P29323 whole entry, looked up): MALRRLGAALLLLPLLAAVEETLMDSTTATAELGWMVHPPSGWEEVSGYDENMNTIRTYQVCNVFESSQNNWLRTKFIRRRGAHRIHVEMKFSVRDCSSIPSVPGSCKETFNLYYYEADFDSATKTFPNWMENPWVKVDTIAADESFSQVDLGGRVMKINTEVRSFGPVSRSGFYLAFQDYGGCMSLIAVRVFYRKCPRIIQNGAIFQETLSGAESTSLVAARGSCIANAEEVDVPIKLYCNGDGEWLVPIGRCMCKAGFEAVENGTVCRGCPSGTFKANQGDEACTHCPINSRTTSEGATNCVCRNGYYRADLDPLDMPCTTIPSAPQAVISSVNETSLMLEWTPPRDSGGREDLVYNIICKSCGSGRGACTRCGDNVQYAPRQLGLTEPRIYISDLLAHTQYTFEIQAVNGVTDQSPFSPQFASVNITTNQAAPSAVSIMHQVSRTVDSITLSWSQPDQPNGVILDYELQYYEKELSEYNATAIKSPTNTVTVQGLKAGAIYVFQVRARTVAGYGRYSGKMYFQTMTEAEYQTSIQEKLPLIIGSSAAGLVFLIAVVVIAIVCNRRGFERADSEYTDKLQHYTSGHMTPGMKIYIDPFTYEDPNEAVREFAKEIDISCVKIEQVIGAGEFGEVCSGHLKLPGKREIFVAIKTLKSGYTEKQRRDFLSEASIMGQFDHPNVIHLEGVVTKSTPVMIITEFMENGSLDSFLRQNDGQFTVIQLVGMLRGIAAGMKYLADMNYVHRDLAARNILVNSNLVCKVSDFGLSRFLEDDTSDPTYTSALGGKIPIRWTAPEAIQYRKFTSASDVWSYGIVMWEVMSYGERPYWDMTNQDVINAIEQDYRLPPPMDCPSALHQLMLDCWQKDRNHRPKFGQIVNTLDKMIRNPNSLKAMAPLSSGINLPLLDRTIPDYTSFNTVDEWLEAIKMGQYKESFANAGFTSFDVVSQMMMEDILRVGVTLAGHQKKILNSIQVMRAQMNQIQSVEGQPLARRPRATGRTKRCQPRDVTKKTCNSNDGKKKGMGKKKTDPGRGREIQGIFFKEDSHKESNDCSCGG
Chain of Grb2 SH2 (P62993 whole entry, looked up): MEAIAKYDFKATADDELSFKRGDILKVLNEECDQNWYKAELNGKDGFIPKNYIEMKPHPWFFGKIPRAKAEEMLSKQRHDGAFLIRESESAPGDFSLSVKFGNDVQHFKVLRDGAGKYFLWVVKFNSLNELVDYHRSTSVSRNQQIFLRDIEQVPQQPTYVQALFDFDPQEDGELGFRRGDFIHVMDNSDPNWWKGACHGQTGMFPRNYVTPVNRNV
Chain of Jak2 (O60674 whole entry, looked up): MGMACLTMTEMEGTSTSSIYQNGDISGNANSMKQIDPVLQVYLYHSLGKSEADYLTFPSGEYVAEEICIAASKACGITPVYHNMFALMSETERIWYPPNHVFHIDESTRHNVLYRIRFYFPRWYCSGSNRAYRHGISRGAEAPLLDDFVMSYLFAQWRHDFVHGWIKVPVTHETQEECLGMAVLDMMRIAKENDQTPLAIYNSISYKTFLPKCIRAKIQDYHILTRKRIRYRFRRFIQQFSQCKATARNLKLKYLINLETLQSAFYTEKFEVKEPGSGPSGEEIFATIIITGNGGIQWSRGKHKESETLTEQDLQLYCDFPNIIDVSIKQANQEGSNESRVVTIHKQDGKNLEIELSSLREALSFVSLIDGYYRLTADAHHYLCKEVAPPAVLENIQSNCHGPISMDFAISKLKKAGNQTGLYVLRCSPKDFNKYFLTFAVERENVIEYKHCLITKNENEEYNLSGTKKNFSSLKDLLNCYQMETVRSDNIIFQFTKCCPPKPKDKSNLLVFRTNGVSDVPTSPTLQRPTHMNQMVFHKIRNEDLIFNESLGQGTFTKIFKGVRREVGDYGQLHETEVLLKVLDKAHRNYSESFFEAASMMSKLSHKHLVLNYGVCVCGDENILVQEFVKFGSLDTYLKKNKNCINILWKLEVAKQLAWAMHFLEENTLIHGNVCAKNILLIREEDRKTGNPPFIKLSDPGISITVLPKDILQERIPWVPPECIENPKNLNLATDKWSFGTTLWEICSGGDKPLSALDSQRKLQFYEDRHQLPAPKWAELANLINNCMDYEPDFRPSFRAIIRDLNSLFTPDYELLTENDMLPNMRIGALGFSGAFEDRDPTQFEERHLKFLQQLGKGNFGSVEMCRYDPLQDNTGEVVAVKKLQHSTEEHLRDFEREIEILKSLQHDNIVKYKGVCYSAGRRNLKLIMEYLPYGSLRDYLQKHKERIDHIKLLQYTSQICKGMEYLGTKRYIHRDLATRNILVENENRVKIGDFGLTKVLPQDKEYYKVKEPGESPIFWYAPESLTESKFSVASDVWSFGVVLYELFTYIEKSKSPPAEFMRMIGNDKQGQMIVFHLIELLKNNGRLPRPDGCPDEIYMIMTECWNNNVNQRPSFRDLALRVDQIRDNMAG
Chain of FGFR3 (P22607 whole entry, looked up): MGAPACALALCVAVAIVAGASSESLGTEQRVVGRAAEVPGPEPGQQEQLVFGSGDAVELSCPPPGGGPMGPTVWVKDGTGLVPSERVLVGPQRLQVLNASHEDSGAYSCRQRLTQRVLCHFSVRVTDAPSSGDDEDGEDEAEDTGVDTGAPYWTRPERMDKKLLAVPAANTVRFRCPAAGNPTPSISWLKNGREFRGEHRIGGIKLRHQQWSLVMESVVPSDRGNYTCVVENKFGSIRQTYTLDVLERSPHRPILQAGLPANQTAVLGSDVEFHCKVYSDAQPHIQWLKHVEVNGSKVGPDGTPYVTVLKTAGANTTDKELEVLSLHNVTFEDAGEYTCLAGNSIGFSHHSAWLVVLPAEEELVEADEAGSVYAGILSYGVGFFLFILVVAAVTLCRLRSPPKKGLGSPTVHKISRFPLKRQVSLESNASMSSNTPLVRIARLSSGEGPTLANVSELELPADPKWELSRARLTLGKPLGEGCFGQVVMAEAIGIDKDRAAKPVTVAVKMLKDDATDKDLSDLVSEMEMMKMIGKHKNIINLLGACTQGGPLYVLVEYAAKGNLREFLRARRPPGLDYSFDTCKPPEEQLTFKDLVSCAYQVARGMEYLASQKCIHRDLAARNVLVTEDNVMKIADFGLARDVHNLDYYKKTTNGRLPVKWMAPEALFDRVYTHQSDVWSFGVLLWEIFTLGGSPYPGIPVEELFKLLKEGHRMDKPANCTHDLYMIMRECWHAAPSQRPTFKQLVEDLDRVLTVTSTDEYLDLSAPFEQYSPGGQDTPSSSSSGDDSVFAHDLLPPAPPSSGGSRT

Sequence | SH2 binding enrichment (SHP2-C SH2) | SH2 binding enrichment (Grb2 SH2) | SH2 binding enrichment (c-Src SH2) | phosphorylation enrichment (c-Src) | phosphorylation enrichment (MERTK) | phosphorylation enrichment (FGFR3) | phosphorylation enrichment (EPHB2) | phosphorylation enrichment (c-Abl (mouse)) | phosphorylation enrichment (EPHB1) | phosphorylation enrichment (Jak2) | phosphorylation enrichment (AncSZ) | phosphorylation enrichment (Fer (mouse)) | phosphorylation enrichment (Fyn) | phosphorylation enrichment (Hck) | phosphorylation enrichment (FGFR1) | phosphorylation enrichment (Fes)
WQQQSYLDYGI [CTNNB1_Y30_S33Y] | 0.648 | 0.818 | 0.511 | 0.743 | 0.426 | 0.827 | 1.07 | 0.711 | 0.808 | 0.842 | 1.11 | 0.453 | 0.604 | 0.615 | 0.91 | 1.03
WVFNHYRWIIW [BRCA2_Y2624_YF] | 0.776 | 1.09 | 0.717 | 0.432 | 0.437 | 0.824 | 0.536 | 0.862 | 0.611 | 1.36 | 1.29 | 0.456 | 0.343 | 0.403 | 0.452 | 1.39
WVYNHYRWIIW [BRCA2_Y2624] | 1.18 | 1.29 | 0.509 | 0.415 | 0.301 | 0.702 | 0.597 | 0.841 | 0.521 | 1.14 | 0.937 | 0.431 | 0.375 | 0.461 | 0.499 | 1.11
YAGRDYSLDEF [MYOF_Y1705_G1701A] | 0.665 | 0.757 | 0.909 | 0.878 | 0.52 | 0.686 | 0.536 | 0.928 | 0.658 | 1.37 | 1.06 | 0.588 | 0.595 | 0.549 | 0.54 | 1.14
YALAEYTEVKT [ALDH1A3_Y497] | 4.27 | 0.66 | 5.59 | 0.658 | 0.652 | 1.25 | 0.719 | 0.614 | 0.651 | 0.812 | 1.29 | 1.31 | 0.572 | 0.724 | 1.73 | 0.901
YCVDCYKNFVA [FHL1_Y213] | 0.838 | 1.19 | 1.02 | 0.507 | 0.722 | 0.651 | 0.514 | 0.737 | 0.564 | 0.726 | 0.668 | 0.532 | 0.532 | 0.54 | 0.572 | 0.832
YGPPQYNIQYS [ERBB2IP_Y977] | 0.986 | 0.728 | 0.322 | 0.617 | 0.602 | 0.557 | 0.592 | 0.858 | 0.412 | 0.655 | 0.989 | 0.672 | 0.549 | 0.72 | 0.462 | 0.802
YIPFRYPKEFQ [IDS_Y234_H229Y] | 0.602 | 0.768 | 0.572 | 0.768 | 0.554 | 0.658 | 0.485 | 0.464 | 0.464 | 0.477 | 0.777 | 0.425 | 0.644 | 0.831 | 0.748 | 0.656
YIRKDYEACKA [BBS4_Y48] | 1.11 | 0.982 | 0.796 | 0.386 | 0.398 | 0.38 | 0.398 | 0.374 | 0.469 | 0.407 | 0.553 | 0.403 | 0.445 | 0.404 | 0.466 | 0.464
YPPDGYSRHYE [CTNND1_Y213] | 1.04 | 0.911 | 1.21 | 0.354 | 0.395 | 0.548 | 0.394 | 0.355 | 0.388 | 0.534 | 0.561 | 0.354 | 0.348 | 0.414 | 0.451 | 0.655
YRKNTYNVKST [SYNE2_Y575_I574T] | 0.715 | 0.79 | 0.46 | 0.398 | 0.316 | 0.361 | 0.296 | 0.351 | 0.351 | 0.393 | 0.415 | 0.327 | 0.344 | 0.346 | 0.334 | 0.465
YRRITYYNWRH [PDE6B_Y556_H557Y] | 0.562 | 0.742 | 0.547 | 0.47 | 0.512 | 0.598 | 0.457 | 0.539 | 0.417 | 0.47 | 0.64 | 0.442 | 0.483 | 0.46 | 0.497 | 0.549
YSGDCYRIQGR [DDR2_Y741_Y740C] | 0.506 | 0.798 | 0.615 | 0.374 | 1.25 | 0.715 | 0.514 | 0.552 | 0.468 | 0.735 | 0.818 | 0.49 | 0.475 | 0.564 | 0.483 | 0.83
YSIDYYRVGGH [NTRK2_Y707_T704I] | 0.753 | 0.832 | 1.44 | 2.15 | 8.42 | 9.07 | 0.86 | 0.494 | 1.52 | 6.54 | 1.65 | 0.514 | 1.31 | 1.78 | 12.5 | 0.916
YSTDYYRVGGH [NTRK2_Y707] | 0.922 | 0.787 | 0.691 | 2.22 | 9.44 | 11.1 | 3.5 | 1.03 | 5.71 | 8.96 | 2.31 | 0.44 | 1.68 | 2.55 | 14.2 | 0.732
YVKEPYIQSRF [HIPK4_Y175] | 0.721 | 1.11 | 0.769 | 0.329 | 0.53 | 0.528 | 0.465 | 0.457 | 0.406 | 0.507 | 0.628 | 0.411 | 0.469 | 0.416 | 0.491 | 0.77
